Assay results: US20110195896A1 (CASE WESTERN RESERVE UNIVERSITY, published 2011)
Ends that are not written are not given here.

How the values were obtained:
[1] = molecular target: T1, Type I IGF receptor (UniProt P08069 31-1367); experiment: competitive displacement of 125I-IGF-1 from IGFR
T1 construct: also called IGF-I RECEPTOR; Insulin-like Growth Factor Receptor

[2] = molecular target: T1, Type I IGF receptor; experiment: competitive displacement of labelled tracer from IGFR
Procedure: Receptor-Binding Assays. […] This assay employs the purified epitope-tagged receptor (IR-A, IR-B, or IGFR) using a microtiter-plate antibody-capture assay as known in the art. The epitope tag consists of three tandem repeats of the FLAG epitope. Microtiter strip plates (Nunc Maxisorb) were incubated overnight at 4° C. with anti-FLAG IgG (100 μl/well of […] in phosphate-buffered saline). Binding data were analyzed by a single-site heterologous competition binding model. A corresponding microtiter plate antibody assay using the epitope-tagged IGF Type I receptor was employed to assess cross-binding of analogues to this homologous receptor.

Binder | Kd [1] | Kd [2]
[His^A8, Asp^B28, Pro^B29]-SCI (57-mer single-chain insulin analogue, linker GGGPRR) (ligand, ends and bridges not checked; cysteine pairing not given here, Made by total chemical synthesis and native ligation) FVNQHLCGSHLVEALYLVCGERGFFYTDPTGGGPRRGIVEQCCHSICSLYQLENYCN | 27.6 nM | 27.6 nM
His^A8, Asp^B10, Asp^B28, Pro^B29 SCI (ligand, also called SCI (His^A8, Asp^B10, Asp^B28, and Pro^B29); SCI containing the substitution Asp^B10) FVNQHLCGSDLVEALYLVCGERGFFYTDPTGGGPRRGIVEQCCHSICSLYQLENYCN |  | 9.89 nM
